The nature of the data set: protein stability index of a GFP-peptide fusion (yeast GPS) (PSI 1-4); higher = more stable; sorted into four equal gates, so the index is relative within each strain. Summed up:
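Plasmids in a pooled yeast library fused tiled 17-residue yeast protein peptides downstream of GFP and also expressed Cherry. Mid-log cultures grown without leucine were sorted into four equal gates by GFP/Cherry fluorescence ratio. Each gate's plasmids were PCR-amplified and Illumina-sequenced, and reads were matched to strains by barcodes. The protein stability index is derived by multiplying each gate's read frequency by its gate number and summing the results.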

The values that follow come from the supplement of paper PMC9732359.

± gives the uncertainty stated by the source.

On to TFEQFKDTIVKEAEDKT [RPC37], for which the protein stability index (ubr1∆) turned out to be 2.43 ± 0.29.

THIPQTNLKNHPAYLFK [YLR018C/POM34] came in with a protein stability index (doa10∆) of 2.84 ± 0.059, a protein stability index (pdr5∆) of 2.83 ± 0.04, a protein stability index (san1∆) of 2.64 ± 0.054 and a protein stability index (ubr1∆) of 2.75 ± 0.029.

With EYEEWQKSVSLLSSESN [YDL116W/NUP84], the protein stability index came out at 2.93 ± 0.055 (doa10∆), 3.02 ± 0.077 (pdr5∆), 2.84 ± 0.053 (san1∆) and 2.73 ± 0.054 (ubr1∆).

For RLNPYAKVFAAEKLGSK [RPL4A], the protein stability index (doa10∆) worked out at 2.09 ± 0.14.

Take ERSLAVKYINFGKTVKD [RPC31]: the protein stability index was 3.09 ± 0.088 (doa10∆), 3.18 ± 0.1 (pdr5∆), 2.99 ± 0.046 (san1∆) and 2.88 ± 0.058 (ubr1∆).

As to LFLYKELVKAHLGERAA [RPC82], the protein stability index by setting is: (doa10∆) 2.72 ± 0.086; (pdr5∆) 2.96 ± 0.09; (san1∆) 2.88 ± 0.061; (ubr1∆) 2.77 ± 0.11.

For the sequence TQVNILKENNAILQKSL [YIL149C/MLP2], the protein stability index (doa10∆) was determined as 2.44 ± 0.06, the protein stability index (pdr5∆) came to 2.55 ± 0.062, the protein stability index (san1∆) amounted to 2.63 ± 0.076 and the protein stability index (ubr1∆) was 2.65 ± 0.059.

For VSEDLLDERGHEKIEDE [RPN4], the protein stability index turned out to be 3.36 ± 0.1 (doa10∆), 3.53 ± 0.15 (pdr5∆), 3.71 ± 0.08 (san1∆) and 3.45 ± 0.11 (ubr1∆).

The sequence MDPGAPLPVETPRDRRK [SSN2] returned a protein stability index (san1∆) of 3.25 ± 0.25.

In turn, VDLIEKFLRYNPLEKRD [RPB10] registered a protein stability index (doa10∆) of 2.91 ± 0.14, a protein stability index (pdr5∆) of 3.27 ± 0.12, a protein stability index (san1∆) of 3.23 ± 0.071 and a protein stability index (ubr1∆) of 3.11 ± 0.041.

With QKTVFDELCKLVTCEGS [SRP54], the protein stability index reads like this: (doa10∆) 1.19 ± 0.1; (pdr5∆) 1.48 ± 0.091; (san1∆) 1.25 ± 0.18; (ubr1∆) 1.14 ± 0.086.

Take QAPTTGFSFGSQLGGNK [YJL041W/NSP1]: the protein stability index was 3.02 ± 0.051 (doa10∆), 3.01 ± 0.054 (pdr5∆), 3.37 ± 0.045 (san1∆) and 3.17 ± 0.036 (ubr1∆).

Turning to VGVIIFILTIATAFLGY [COB], the protein stability index reads like this: (doa10∆) 2.31 ± 0.07; (pdr5∆) 1.84 ± 0.052; (san1∆) 1.82 ± 0.072; (ubr1∆) 2.63 ± 0.039.

KYDRKVPSPTGEYVKEP [RPO21]: the protein stability index is, setting by setting: (doa10∆) 2.98 ± 0.1; (pdr5∆) 3.22 ± 0.071; (san1∆) 2.81 ± 0.089; (ubr1∆) 3.09 ± 0.04.

With SHNENKMDFSSKEGQYK [YIL149C/MLP2], the protein stability index reads like this: (doa10∆) 3.27 ± 0.077; (pdr5∆) 3.29 ± 0.07; (san1∆) 3.25 ± 0.065; (ubr1∆) 3.28 ± 0.064.

Consider TEYFENKQSVSNLSPDL [DSN1], for which the protein stability index by setting is: (doa10∆) 3.48 ± 0.13; (pdr5∆) 3.4 ± 0.1; (san1∆) 3.34 ± 0.089; (ubr1∆) 3.58 ± 0.058.

With EVSMNSIFAMGLCGAGT [RPN1], the protein stability index reads like this: (doa10∆) 1.68 ± 0.047; (pdr5∆) 1.61 ± 0.058; (san1∆) 1.49 ± 0.091; (ubr1∆) 1.23 ± 0.052.

Take TGNNNNIATQQNMQQSL [GAL11]: the protein stability index runs as follows: (doa10∆) 2.06 ± 0.048; (pdr5∆) 2.49 ± 0.077; (san1∆) 2.55 ± 0.11; (ubr1∆) 2.59 ± 0.052.

Consider LSSELDSNKTLLHNHLK [SMC2], for which the protein stability index by setting is: (doa10∆) 3.21 ± 0.059; (pdr5∆) 3.26 ± 0.058; (san1∆) 3.17 ± 0.048; (ubr1∆) 3.2 ± 0.039.

As for EDHVEDHRKRKKSKIQL [LIN1], the protein stability index by setting is: (doa10∆) 3.17 ± 0.093; (pdr5∆) 3.25 ± 0.082; (san1∆) 3.12 ± 0.059; (ubr1∆) 3.16 ± 0.052.

With SLISTRNDSTVNDSVIS [BRN1], the protein stability index reads like this: (doa10∆) 2.6 ± 0.081; (pdr5∆) 2.81 ± 0.077; (san1∆) 2.72 ± 0.06; (ubr1∆) 2.67 ± 0.059.

FTNPSVDIQIINQYQLL [SWI1]: the protein stability index is 1.44 ± 0.055 (doa10∆), 1.66 ± 0.07 (pdr5∆), 1.43 ± 0.11 (san1∆) and 1.31 ± 0.063 (ubr1∆).

Regarding RFRGKRVVYLKHLEDNT [RPL6A], the protein stability index (doa10∆) turned out to be 2.21 ± 0.068, the protein stability index (pdr5∆) came to 2.37 ± 0.053, the protein stability index (san1∆) turned out to be 2.15 ± 0.1 and the protein stability index (ubr1∆) was determined as 2.31 ± 0.049.

Take ILSVKLAELINMTTIAD [SRB6]: the protein stability index was found to be 2.6 ± 0.072 (doa10∆), 2.46 ± 0.076 (pdr5∆), 2.75 ± 0.069 (san1∆) and 2.85 ± 0.068 (ubr1∆).

Turning to RSATGAKRAQFRKKRKF [RPS8A], the protein stability index (doa10∆) was 2.94 ± 0.1, the protein stability index (pdr5∆) came out at 2.5 ± 0.085, the protein stability index (san1∆) was found to be 3.42 ± 0.096 and the protein stability index (ubr1∆) was determined as 2.68 ± 0.073.

For the sequence NNTLSRYADAGNIDTKN [RRP43], the protein stability index runs as follows: (doa10∆) 3.35 ± 0.064; (pdr5∆) 3.21 ± 0.058; (san1∆) 3.28 ± 0.041; (ubr1∆) 3.5 ± 0.054.

Regarding PPDSDSSISVMGENEKP [RPT3], the protein stability index amounted to 1.47 ± 0.16 (doa10∆), 1.22 ± 0.12 (pdr5∆), 1.21 ± 0.15 (san1∆) and 1.77 ± 0.2 (ubr1∆).

With LYYPQKPLGTTRAMEYL [RPB2], the protein stability index by setting is: (doa10∆) 2.17 ± 0.089; (pdr5∆) 2.9 ± 0.15; (san1∆) 2.05 ± 0.14; (ubr1∆) 2.83 ± 0.06.

For KLLKGATLYIPKALRFD [FAS2], the protein stability index amounted to 2.79 ± 0.22 (pdr5∆) and 2.88 ± 0.13 (san1∆).

On to NDDFSEVFEFKTFNKIQ [BRR2], for which the protein stability index runs as follows: (doa10∆) 2.01 ± 0.051; (pdr5∆) 2.06 ± 0.061; (san1∆) 2.24 ± 0.083; (ubr1∆) 2.64 ± 0.097.

For NGNITYSEEPREKVRKL [FAS2], the protein stability index is 2.99 ± 0.17 (doa10∆), 3.54 ± 0.18 (pdr5∆), 3.3 ± 0.2 (san1∆) and 3.53 ± 0.18 (ubr1∆).

Take SMIEKGGDWERRNRYKT [RPN7]: the protein stability index reads like this: (doa10∆) 3.01 ± 0.14; (pdr5∆) 3.43 ± 0.22.

KIESSVESQFSAGRLYA [RPS8A] came in with a protein stability index (doa10∆) of 2.81 ± 0.11, a protein stability index (pdr5∆) of 2.85 ± 0.087, a protein stability index (san1∆) of 1.96 ± 0.15 and a protein stability index (ubr1∆) of 2.77 ± 0.13.

For the sequence DDDEVDYSEIQRSRRKF [DSN1], the protein stability index runs as follows: (doa10∆) 2.66 ± 0.1; (pdr5∆) 3.66 ± 0.23; (san1∆) 3.04 ± 0.2; (ubr1∆) 2.75 ± 0.16.

The sequence RCIGDSDNVSFEIQGVP [YMR129W/POM152] came in with a protein stability index (doa10∆) of 3.17 ± 0.1, a protein stability index (pdr5∆) of 3.39 ± 0.085, a protein stability index (san1∆) of 3.28 ± 0.059 and a protein stability index (ubr1∆) of 3.35 ± 0.06.

As to IQEANSVDMSALKDPQT [RIP1], the protein stability index is 3.43 ± 0.21 (pdr5∆) and 3.26 ± 0.077 (ubr1∆).

As to DEMYELTDPMTVMFFYH [DIB1], the protein stability index is, setting by setting: (doa10∆) 2.69 ± 0.092; (pdr5∆) 3.01 ± 0.11; (san1∆) 2.83 ± 0.14; (ubr1∆) 2.85 ± 0.11.

On to SVQINVAKVDEEGRAIP [RPS21A], for which the protein stability index reads like this: (doa10∆) 3.28 ± 0.065; (pdr5∆) 3.23 ± 0.089; (san1∆) 3.31 ± 0.048; (ubr1∆) 3.32 ± 0.043.

For the sequence CIECQPKAMTDTDNECV [HRT1], the protein stability index by setting is: (doa10∆) 3.26 ± 0.097; (pdr5∆) 3.25 ± 0.093; (san1∆) 2.94 ± 0.11; (ubr1∆) 3.32 ± 0.062.

Regarding NITKNLKTFNGSLALLK [POP4], the protein stability index reads like this: (pdr5∆) 3.19 ± 0.15; (san1∆) 2.93 ± 0.082; (ubr1∆) 3.13 ± 0.1.
